This series relates to DctD2 D57Q (d-DctD2 mimic) (Vibrio vulnificus). The series is described as follows: EMSA. Particulars: EMSA: 50 mM Tris-HCl pH 8.0, 20 mM KCl, 50 mM MgCl2 (so in the source), 100 mM NaCl; approx. 50 nM 32P-labeled probe; 6% native PAGE; temperature not stated. On the technique in general: Mobility shift assays separate free from complexed probe on a gel.

With “EPS-II cluster regulatory region probe (480 bp)”, the binding was more than 700 nM.

The record behind these values is publication PMC9040800.
